Source: the supplement of paper PMC12764529
± gives the half width of the 95% confidence interval.

How the values were obtained:
[1] = folding stability dG unfold from trypsin proteolysis; higher = more stable
In short: (§1)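 Designed mini-proteins (under 80 residues, no cysteine) in a PA-tagged cDNA display construct were digested with trypsin and chymotrypsin. Each protease was used at 11 concentrations (threefold dilutions) plus a no-protease condition, followed by sequencing. K50 was inferred by Bayesian fitting of sequencing counts, and unfolding free energy was derived against a sequence-predicted unfolded-state K50 and a shared folded-state K50, per protease or combined. Only designs with AlphaFold2 dimer inter-PAE above 15 were kept.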

[2] = folding stability dG unfold from chymotrypsin proteolysis; higher = more stable
In short: as §1

[3] = folding stability dG unfold (combined trypsin and chymotrypsin); higher = more stable
In short: as §1

Row | Sequence | folding stability dG unfold [1] | folding stability dG unfold [2] | folding stability dG unfold [3]
1 | SAGGSAGGTATLVLPAAAFPSRPDGSLGLEEIRDVARPIAQEAFGTDDITLDVESHPDGFVTITFSSAGGSA [r15_562_TrMRF] | 0.642 ± 0.027 kcal/mol | 0.197 ± 0.17 kcal/mol | 0.519 ± 0.072 kcal/mol
2 | SAGGSAGGTISFPNATATITVEENSVTITVTNADGQPTTFTIPLPIPKAKPFTLPDGTKLYLIASAGGSAGG [r6_806_TrMRF] | 1.94 ± 0.083 kcal/mol | 2.31 ± 0.16 kcal/mol | 2.31 ± 0.21 kcal/mol
3 | SAGGSAGGTSVADELEEEFKAKGYPAEVTVTKLPDDTTLVTVTVTDPKTGKSTTTTVTVSPAEASAGGSAGG [r6_692_JUSTAS] | 1.02 ± 0.076 kcal/mol | 1.01 ± 0.12 kcal/mol | 0.861 ± 0.16 kcal/mol
4 | SAGGSAGGVERIKKLLEELGAEVVKVEKLENGKTLIYIKVKSEEQREALKALLPEEDIEIIEPESAGGSAGG [r6_83_TrROS_Hall] | 4.69 ± 0.58 kcal/mol | 4.47 ± 0.17 kcal/mol | 4.43 ± 0.17 kcal/mol
5 | SAGGSAGGVKEALEELLKKLKPGEKKTITLEIEVDGKLVKIEIEVLPDGEIKITKIEEIPKEDLSAGGSAGG [r6_87_TrROS_Hall] | 2.97 ± 0.12 kcal/mol | 1.95 ± 0.096 kcal/mol | 2.47 ± 0.16 kcal/mol
6 | SAGGSAGGVKIEVETRTETLPDGSTRTVMRVKIELPAPPPPPPPPTRTVTETTEDGETRTTTVRSAGGSAGG [r6_778_TrROS_Hall] | 0.626 ± 0.13 kcal/mol | 2.07 ± 0.066 kcal/mol | 1.64 ± 0.17 kcal/mol
7 | SAGGSAGGVPEVVEEVAREVDPRIVTRVEVRVFEPPPEYRLVVVVVELRLPTERRFVPRVVRLRSAGGSAGG [r6_630_TrMRF] | 2.85 ± 0.19 kcal/mol | 3.49 ± 0.066 kcal/mol | 3.25 ± 0.31 kcal/mol
8 | SAGGSAGGVVPLEELAKRLGWSPEFLRELEEKGIKVELERVTPDKVVVTLTEPGTGETKTIELPSAGGSAGG [r6_969_JUSTAS] | 3.19 ± 0.24 kcal/mol | 2.82 ± 0.13 kcal/mol | 3.08 ± 0.17 kcal/mol
9 | SAGGSAGGWIEIDPETGTIEIWMPPNDIEPLVDEIAEELGWKVKVKVEPNPEGWVRHTITIPPKSAGGSAGG [r6_419_TrROS] | -0.109 ± 0.087 kcal/mol | 0.281 ± 0.35 kcal/mol | 0.39 ± 0.23 kcal/mol
10 | SAGGSAGGWIEINILVPLKPGQTPSELADEIAQEFQNQHGWEIKIDDVYPTDNYVWHKIEITPPSAGGSAGG [r6_639_TrROS] | 0.864 ± 0.031 kcal/mol | 1.49 ± 0.055 kcal/mol | 1.29 ± 0.083 kcal/mol
11 | SAGGSAGGWIIRIHFPNGHEHTFKIKSPEEAKDRIMDHHGMPPDKIPPETIKDVEIIPPDAMKESAGGSAGG [r6_588_TrROS] | -0.0377 ± 0.11 kcal/mol | 0.604 ± 0.12 kcal/mol | 0.434 ± 0.18 kcal/mol
12 | SAGGSAGGWITLDLIKELAREAMNQAQLNGMENVPIEIRWPDGWRIKIEINMNKVEVDVQPWNDSAGGSAGG [r6_270_TrROS] | 1.9 ± 0.11 kcal/mol | 2.57 ± 0.079 kcal/mol | 2.4 ± 0.15 kcal/mol
13 | SAGGSAGGWKIIEVDPKKGVVMIEMDPEEGNWYVRVPNGPIQRFDSPEEIEEKFGFPVEIYPLPSAGGSAGG [r6_753_TrROS] | 1.3 ± 0.098 kcal/mol | 0.816 ± 0.092 kcal/mol | 1.14 ± 0.17 kcal/mol
14 | SAGGSAGGYWKVEIKNGMTFSIPGMTLDEAKNHARWHGFPMPIDKIEIEPVKPPPPPPKDPDDQSAGGSAGG [r6_688_TrROS] | 2.27 ± 0.14 kcal/mol | 2.95 ± 0.22 kcal/mol | 2.75 ± 0.35 kcal/mol
15 | SAGGSAGGYWMISVKIYDPEDGKPIAQMTFMFDSPEEAERIVEEIADALPPGYRVEVDIHPIPNSAGGSAGG [r6_690_TrROS] | 3.82 ± 0.12 kcal/mol | 4.99 ± 0.14 kcal/mol | 4.85 ± 0.16 kcal/mol
16 | SAGGSAGIEERLKKLAEELGLEVKVTKVEVKVDGKEEVVVEVEVEPPPPPVEVKELSEEERKKAEESAGGSA [r15_256_TrROS_Hall] | 1.27 ± 0.21 kcal/mol | 0.99 ± 0.19 kcal/mol | 1.13 ± 0.23 kcal/mol
17 | SAGGSAGIEVHPEGTVRIEVGGRSLTVTPADAVDVTQEGDKIVVTITRRDADGTPVGTLPVTVELASAGGSA [r15_424_JUSTAS] | -0.75 ± 0.088 kcal/mol | 0.835 ± 0.018 kcal/mol | 0.52 ± 0.045 kcal/mol
18 | SAGGSAGLPEAIAEAIARELQAEPGYELDVEAEVDPETGTLHIRARVRLPDDDTWFELEITVPLPASAGGSA [r15_464_TrMRF] | 1.75 ± 0.084 kcal/mol | 3.22 ± 0.12 kcal/mol | 2.93 ± 0.13 kcal/mol
19 | SAGGSAGMDPSKVSLSISTKTYTDTATGRKVEELYFEGSGKKVTVTTLPDGTKIVTYENGVVIEVESAGGSA [r15_617_JUSTAS] | 0.758 ± 0.024 kcal/mol | -0.672 ± 0.24 kcal/mol | 0.314 ± 0.054 kcal/mol
20 | SAGGSAGMIEVEIRPTPEGGYEVLVKFYGPGGVEVEEKKYRFGSEEEAKKFLEELAKKNGYSVKIRSAGGSA [r15_242_JUSTAS] | 2.11 ± 0.056 kcal/mol | 3.74 ± 0.027 kcal/mol | 3.3 ± 0.067 kcal/mol
21 | SAGGSAGMMKVTTTPVSADTVRVTVTVPGGPFTVTVTQNGVPLLTRTVPADATLTITLPPNATVVGSAGGSA [r15_581_JUSTAS] | 1.91 ± 0.098 kcal/mol | 1.94 ± 0.078 kcal/mol | 1.94 ± 0.14 kcal/mol
